From patent publication US20240279345A1, “ALPHA 5 BETA 1 INTEGRIN BINDING AGENTS AND USES THEREOF” (PASITHEA THERAPEUTICS CORP., priority 2021, published 2024)
Changes are numbered by the printed parent chain.

B1: A2-7A05 (antibody, V domains shown)
VH: QVQLQQPGAELVKPGASVKLSCKASGYTFTIYWINWVKQRPGQGLEWIGKIYPGSISTDYNEKFKSKATLTVDTSSSTAYMQLSSLTSDDSAVYYCAITGTGGLAYWGQGTLVTVSA
VL: ENVLTQSPAIMSASLGEKVTMTCRASSSVNYMYWYQQKSDASPKLWIYFTSSLAPGVPGRFSGSGSGNSYSLTISTMEGEDAATYYCQQFTTSPFTFGSGTKLEIK
notes: mouse hybridoma antibody; also called A2-7A05 (hybridoma)
B2: A2-7F01 (antibody, V domains shown)
VH: B1 VH with K50N, I56S, D59N, S66T, L104F
VL: B1 VL with T22S, G59T, Y70F, T76S, F90L, T92G, K102R
notes: mouse hybridoma antibody
B3: A2-5D10 (antibody, V domains shown)
VH: QVQLKESGPGLVAPSQSLSITCTISGFSLTSYGVHWVRQPPGKGLEWLVVIWSDGSTTYNSTLKSRLSISKDNSKSQVFLKMNSLQTDDTAMYYCARHYDYDGDWFAYWGQGTLVTVSA
VL: QILLTQSPAIMSASLGERVTMTCTASSSVSSRCLHWYQQKPGSSPKLWIYSTSNLASGVPARFRGSGSGTSYSLTISSMEAEDAATYYCHQYYRSPPTFGGGTKLEIK
notes: mouse hybridoma antibody

How the values were obtained:
[1] = biological target: rh-α5β1 protein bound to human FN protein (Homo sapiens, UniProt P05556+P08648); assay: SPR dissociation of rh-α5β1 bound to FN; type: biochemical; conditions: 1 μM antibody injected for 250s after 400 nM rh-α5β1; 25° C.
Experimental: Surface Plasmon Resonance (SPR) and a cell-based assay were used to test the effect of the antibodies on the dissociation of rh-α5β1 protein bound to human FN protein. The antibodies tested are representatives of the two groups of antibodies identified in Example 6 that define two different epitope binding groups and have distinct ligand blocking properties. […] In addition, the small molecule antagonist cyclic RGD (cRGD; Creative-Peptides, Shirley, New York, 11967, cat. no. CP22175) was tested as a comparator that inhibits α5β1 integrin binding to FN by competing at the ligand binding pocket.
Description of the SPR method used: FN protein dissolved in water was manually printed onto the bare gold-coated (thickness 47 nm) PlexArray Nanocapture Sensor Chip (Plexera Bioscience, Seattle, WA) at 40% humidity. The chip was incubated in 80% humidity at 4° C. for overnight and rinsed with 10×PBST (0.1M phosphate buffer, 1.54M NaCl, pH7.4, 0.5% Tween20) for 10 minutes (min), 1×PBST (0.01M phosphate buffer pH7.4, 0.154M NaCl, 0.05% Tween20) for 10 min, and deionized water twice for 10 min. The chip was then blocked with 5% (w/v) non-fat milk in water overnight, and washed with 10×PBST for 10 min, 1×PBST for 10 min, and deionized water twice for 10 min before being dried under a stream of nitrogen prior to use. SPR measurements were performed using PlexArray HT (Plexera Bioscience, Seattle, WA), a high-throughput surface plasmon resonance imaging (SPRi) platform. Collimated light (660 nm) passes through the coupling prism, reflects off the SPR-active gold surface, and is received by the CCD camera. Buffers and samples were injected by a non-pulsatile piston pump into the 30 μL flow cell that was mounted on the coupling prim. […] SPR binding responses (a.u.) were recorded and plotted over time.

U87MG cells = assay: Cellular detachment of U87MG cells from FN coated plates; type: cell-based; conditions: antibodies 2.0-0.016 μg/mL, cRGD 20-0.16 μM; 1 hour and 3 hours
Experimental: The A-15B08 and A2-7A05 antibodies and cRGD were also tested for their ability to induce dissociation of cellular α5β1 integrin from FN. U87MG cells (HTB-14™, ATCC, Manassas, VA) which were originally derived from a Glioblastoma tumor, are known to express α5β1 integrin, and adhere to FN coated plates. After an overnight incubation on FN coated plates, the U87MG cells formed a loosely packed monolayer and have extended spindle shapes. If the cells are induced to detach from the plates, by trypsin for example, the attachment points are released, and the cells become round. This type of change in morphology was used to assess whether the antibodies and the small molecule inhibitor cRGD can induce U87MG cells to dissociate from FN coated plates.
The following method was used to assess cellular detachment activity: A 96-well cell culture plate (Thermo Fisher Scientific, Waltham, MA, cat. no. 165306) was coated with FN (Human Fibronectin, R&D Systems, Minneapolis, MN 55413, cat. no. 1918-FN) by incubation of 50 uL per well 32 μg/mL FN in 1×PBS for 1 hour at 37° C., then washed 2× with EMEM media (ATCC, Manassas, VA, cat. no. 30-2003) supplemented with 10% Fetal Bovine Serum (FBS; ATCC, Manassas, VA, cat. no. 30-2021). U87MG cells were plated at 20,000 cells per well in EMEM media+10% FBS overnight to allow for maximum adherence. The next day the media was replaced with fresh media that included a 1:5 dilution series of antibodies A-15B08, A2-7A05 or isotype control IgG4 at concentrations of 2.0, 0.4, 0.08 and 0.016 μg/mL or cRGD at 20, 4, 0.8 and 0.16 μM. All tests were run in duplicate. Cell morphology was assessed, and images were captured using a 10× objective of an ECHO Rebel light microscope (ECHO, San Diego, CA).

[2] = biological target: T1, recombinant mouse α5β1 (rm-α5β1; R&D Systems, cat. no. 7728-A5) (mouse, UniProt P11688 45-999; P09055 21-728); assay: ELISA, coated rm-α5β1, supernatant 1:10
T1 construct: bought recombinant heterodimer
Experimental: (§1) Plates were washed 3 times with Wash Buffer (1× Tris Buffered Saline containing 0.05% Tween20), blocked with 2% BSA in 1×TBS (made from 10× Thermo Scientific Blocker BSA (10×) in TBS; Thermo Fisher Scientific, Waltham, MA, cat. no. 37520) for 2 hours at room temperature (RT) then incubated with hybridoma supernatants diluted 1:10 with Standard Diluent (2% BSA, 1×TBS, 0.05% Tween20). […] Absorbance 450 nm was measured.

[3] = biological target: T2, recombinant human α5β1 integrin (rh-α5β1; R&D Systems, cat. no. 3230-A5) (human, UniProt P08648 42-995; P05556 21-728); assay: ELISA, coated rh-α5β1, supernatant 1:10
T2 construct: bought recombinant heterodimer
Experimental: as §1

[4] = biological target: T3, purified recombinant human α5β1 integrin heterodimer, 6×His tagged (rh-α5β1); Acro Biosystems, cat. no. … (human, UniProt P08648 42-995; P05556 21-728); assay: BLI (Octet), supernatant mAb on anti-mouse IgG Fc sensor, 20 nM rh-α5β1
T3 construct: bought recombinant heterodimer; also called rh-α5β1-6×His tagged protein; His-tagged-α5β1
Text: Anti-Mouse IgG Fc biosensors were used to load each clone supernatant. Assay steps were as follows: Sensor Check (30s)-->Load Ab (700s)-->Quench (480s)-->Baseline(480s)-->Ab Assoc. (600s)-->Dissoc. (600s).

[5] = biological target: T3, purified recombinant human α5β1 …; assay: ELISA, inhibition of rh-α5β1-His binding to coated FN, purified hybridoma mAb
Experimental: Immulon4 HBX ELISA 96-well plates were coated with FN by incubation overnight at 4° C. with 2.5 μg/mL human FN (R&D Systems, Minneapolis, MN 55413, cat. no. 1918-FN) in 1×PBS (0.01M phosphate buffer and 0.154M NaCl, pH 7.4). Plates were then washed 3 times with Wash Buffer (1× Tris Buffered Saline containing 0.05% Tween20), blocked with 2% BSA in 1×TBS for 2 hours at room temperature (RT). […] Isotype control antibody (Control Ab; Ms IgG2a EMD Millipore Corp, Billerica, MA, cat. no. PP102) was used to normalize data across different assay runs. […] Following 1 hour at RT, the wells were washed 3 times, incubated with biotinylated Anti-6×His-Tag Ab (Invitrogen, Carlsbad, CA, cat. no. MAI-21315-BTIN) at 1:1000 in Standard Diluent for 1 hour, washed 3 times, incubated for 30 minutes with poly-HRP Streptavidin (Thermo Fisher Scientific, Waltham, MA, cat. no. N200), washed 4 times, incubated with TMB substrate (Thermo Fisher Scientific, Waltham, MA, cat. no. N301) for 2-5 minutes, followed by addition of ELISA Stop Solution (Invitrogen, Carlsbad, CA, cat. no. SS04). Absorbance 450 nm was measured. Data points were normalized to the isotype Control Ab values at each concentration and reported as % Absorbance 450 nm normalized to Control Ab. Non-linear regression analysis was used to fit curves (4-parameter) to the data using GraphPad Prism version 9.0.2 (GraphPad Software, LLC, San Diego, CA).

[6] = biological target: T4, recombinant human α4β1 integrin (rh-α4β1; R&D Systems, cat. no. 5668-A4) (human, UniProt P13612 34-977; P05556 21-728); assay: ELISA, coated rh-α4β1, supernatant 1:10
T4 construct: bought recombinant heterodimer
T4 sequence (P13612 34-977 limits assumed, form in doubt, chain 1 of 2): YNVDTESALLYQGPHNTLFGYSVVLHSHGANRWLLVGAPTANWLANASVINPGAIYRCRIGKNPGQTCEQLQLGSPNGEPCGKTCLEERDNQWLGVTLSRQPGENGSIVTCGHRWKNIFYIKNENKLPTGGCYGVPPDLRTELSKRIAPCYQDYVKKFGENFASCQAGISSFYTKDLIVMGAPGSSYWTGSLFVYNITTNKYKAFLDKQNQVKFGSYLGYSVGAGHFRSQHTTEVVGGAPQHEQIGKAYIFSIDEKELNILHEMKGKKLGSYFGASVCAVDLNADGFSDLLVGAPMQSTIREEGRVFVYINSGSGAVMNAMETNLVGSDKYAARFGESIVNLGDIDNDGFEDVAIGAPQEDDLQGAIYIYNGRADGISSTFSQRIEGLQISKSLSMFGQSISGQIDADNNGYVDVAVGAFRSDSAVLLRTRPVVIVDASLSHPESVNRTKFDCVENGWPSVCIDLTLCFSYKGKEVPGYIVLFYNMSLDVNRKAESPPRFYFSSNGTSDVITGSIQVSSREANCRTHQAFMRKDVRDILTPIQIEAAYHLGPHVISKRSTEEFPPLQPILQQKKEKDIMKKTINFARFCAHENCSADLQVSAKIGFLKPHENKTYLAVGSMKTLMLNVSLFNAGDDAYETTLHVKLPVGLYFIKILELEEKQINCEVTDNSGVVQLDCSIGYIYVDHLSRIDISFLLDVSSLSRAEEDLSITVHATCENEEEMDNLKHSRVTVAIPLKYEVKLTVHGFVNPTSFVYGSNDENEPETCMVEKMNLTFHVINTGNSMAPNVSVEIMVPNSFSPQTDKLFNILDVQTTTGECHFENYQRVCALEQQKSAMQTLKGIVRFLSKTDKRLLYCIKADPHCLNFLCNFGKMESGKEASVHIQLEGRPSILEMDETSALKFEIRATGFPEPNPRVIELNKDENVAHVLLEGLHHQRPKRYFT
T4 sequence (P05556 21-728 limits assumed, form in doubt, chain 2 of 2): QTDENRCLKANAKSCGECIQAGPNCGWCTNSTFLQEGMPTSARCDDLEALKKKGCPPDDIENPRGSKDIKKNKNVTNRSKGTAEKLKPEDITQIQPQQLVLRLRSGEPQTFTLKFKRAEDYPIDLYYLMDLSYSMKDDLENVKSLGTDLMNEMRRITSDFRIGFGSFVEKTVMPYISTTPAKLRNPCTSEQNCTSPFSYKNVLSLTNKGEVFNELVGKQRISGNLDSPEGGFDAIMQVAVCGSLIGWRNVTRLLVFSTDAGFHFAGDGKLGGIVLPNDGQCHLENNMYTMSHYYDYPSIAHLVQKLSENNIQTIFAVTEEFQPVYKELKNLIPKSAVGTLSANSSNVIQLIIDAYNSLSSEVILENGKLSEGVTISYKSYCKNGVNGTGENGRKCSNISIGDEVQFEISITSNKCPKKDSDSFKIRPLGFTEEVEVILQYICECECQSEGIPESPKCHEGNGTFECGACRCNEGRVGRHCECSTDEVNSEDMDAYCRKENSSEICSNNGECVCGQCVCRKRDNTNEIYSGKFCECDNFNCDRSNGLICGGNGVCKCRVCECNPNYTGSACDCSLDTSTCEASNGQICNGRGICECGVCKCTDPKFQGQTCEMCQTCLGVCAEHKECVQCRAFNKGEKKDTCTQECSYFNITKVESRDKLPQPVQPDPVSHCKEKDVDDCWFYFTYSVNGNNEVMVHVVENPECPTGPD

T3 sequence (P08648 42-995 limits assumed, form in doubt, chain 1 of 2): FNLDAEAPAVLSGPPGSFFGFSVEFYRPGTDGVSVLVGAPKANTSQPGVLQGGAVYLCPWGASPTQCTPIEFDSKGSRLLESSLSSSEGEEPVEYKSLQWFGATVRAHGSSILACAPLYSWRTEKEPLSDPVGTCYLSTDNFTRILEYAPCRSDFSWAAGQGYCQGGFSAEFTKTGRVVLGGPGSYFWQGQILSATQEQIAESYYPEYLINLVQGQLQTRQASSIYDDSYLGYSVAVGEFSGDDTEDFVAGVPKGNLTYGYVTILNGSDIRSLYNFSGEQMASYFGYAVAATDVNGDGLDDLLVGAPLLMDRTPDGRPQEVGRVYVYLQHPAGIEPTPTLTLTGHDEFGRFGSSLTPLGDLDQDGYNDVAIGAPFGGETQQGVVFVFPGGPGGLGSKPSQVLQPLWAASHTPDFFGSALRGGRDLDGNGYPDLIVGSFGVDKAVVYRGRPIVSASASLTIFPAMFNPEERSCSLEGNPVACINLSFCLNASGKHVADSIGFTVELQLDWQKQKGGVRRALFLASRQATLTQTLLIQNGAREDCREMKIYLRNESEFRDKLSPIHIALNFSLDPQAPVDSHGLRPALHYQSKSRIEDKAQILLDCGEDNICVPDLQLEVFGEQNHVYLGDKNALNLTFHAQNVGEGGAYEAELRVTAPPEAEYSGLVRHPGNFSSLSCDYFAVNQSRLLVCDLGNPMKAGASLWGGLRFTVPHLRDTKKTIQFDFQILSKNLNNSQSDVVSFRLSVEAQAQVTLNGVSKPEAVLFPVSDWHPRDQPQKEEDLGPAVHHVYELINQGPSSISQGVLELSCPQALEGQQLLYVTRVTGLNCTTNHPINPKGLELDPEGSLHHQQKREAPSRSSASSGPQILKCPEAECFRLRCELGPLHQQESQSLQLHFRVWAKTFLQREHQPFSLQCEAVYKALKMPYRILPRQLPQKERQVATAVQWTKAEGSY
T3 sequence (P05556 21-728 limits assumed, form in doubt, chain 2 of 2): as the sequence (P05556 21-728 limits assumed, form in doubt, chain 2 of 2) above
T2 sequence (P08648 42-995 limits assumed, form in doubt, chain 1 of 2): as the sequence (P08648 42-995 limits assumed, form in doubt, chain 1 of 2) above
T2 sequence (P05556 21-728 limits assumed, form in doubt, chain 2 of 2): as the sequence (P05556 21-728 limits assumed, form in doubt, chain 2 of 2) above
T1 sequence (P11688 45-999 limits assumed, form in doubt, chain 1 of 2): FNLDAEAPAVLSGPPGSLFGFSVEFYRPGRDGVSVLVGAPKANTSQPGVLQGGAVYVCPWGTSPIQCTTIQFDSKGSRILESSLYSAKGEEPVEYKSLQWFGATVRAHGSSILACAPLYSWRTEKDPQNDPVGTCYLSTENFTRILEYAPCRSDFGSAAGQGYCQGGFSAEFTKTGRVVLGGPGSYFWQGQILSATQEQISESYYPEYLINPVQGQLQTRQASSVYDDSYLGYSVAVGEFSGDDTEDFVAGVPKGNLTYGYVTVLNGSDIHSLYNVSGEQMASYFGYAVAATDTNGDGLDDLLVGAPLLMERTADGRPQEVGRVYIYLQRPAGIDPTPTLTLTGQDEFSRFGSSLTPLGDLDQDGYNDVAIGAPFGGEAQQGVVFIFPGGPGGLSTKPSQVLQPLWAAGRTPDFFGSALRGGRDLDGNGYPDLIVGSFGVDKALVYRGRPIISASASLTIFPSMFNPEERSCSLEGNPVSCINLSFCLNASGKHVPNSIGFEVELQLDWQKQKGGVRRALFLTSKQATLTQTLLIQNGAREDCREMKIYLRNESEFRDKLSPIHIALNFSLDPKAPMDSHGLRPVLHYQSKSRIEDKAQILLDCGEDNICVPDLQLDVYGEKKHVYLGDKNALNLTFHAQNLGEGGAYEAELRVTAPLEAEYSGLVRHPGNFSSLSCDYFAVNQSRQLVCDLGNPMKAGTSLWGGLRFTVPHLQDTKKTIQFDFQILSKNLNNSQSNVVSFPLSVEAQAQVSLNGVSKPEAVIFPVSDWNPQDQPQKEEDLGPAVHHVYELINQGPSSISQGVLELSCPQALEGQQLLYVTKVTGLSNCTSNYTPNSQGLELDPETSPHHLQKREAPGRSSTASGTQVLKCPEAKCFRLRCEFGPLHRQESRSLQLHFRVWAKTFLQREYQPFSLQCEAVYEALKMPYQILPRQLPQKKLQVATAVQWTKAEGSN
T1 sequence (P09055 21-728 limits assumed, form in doubt, chain 2 of 2): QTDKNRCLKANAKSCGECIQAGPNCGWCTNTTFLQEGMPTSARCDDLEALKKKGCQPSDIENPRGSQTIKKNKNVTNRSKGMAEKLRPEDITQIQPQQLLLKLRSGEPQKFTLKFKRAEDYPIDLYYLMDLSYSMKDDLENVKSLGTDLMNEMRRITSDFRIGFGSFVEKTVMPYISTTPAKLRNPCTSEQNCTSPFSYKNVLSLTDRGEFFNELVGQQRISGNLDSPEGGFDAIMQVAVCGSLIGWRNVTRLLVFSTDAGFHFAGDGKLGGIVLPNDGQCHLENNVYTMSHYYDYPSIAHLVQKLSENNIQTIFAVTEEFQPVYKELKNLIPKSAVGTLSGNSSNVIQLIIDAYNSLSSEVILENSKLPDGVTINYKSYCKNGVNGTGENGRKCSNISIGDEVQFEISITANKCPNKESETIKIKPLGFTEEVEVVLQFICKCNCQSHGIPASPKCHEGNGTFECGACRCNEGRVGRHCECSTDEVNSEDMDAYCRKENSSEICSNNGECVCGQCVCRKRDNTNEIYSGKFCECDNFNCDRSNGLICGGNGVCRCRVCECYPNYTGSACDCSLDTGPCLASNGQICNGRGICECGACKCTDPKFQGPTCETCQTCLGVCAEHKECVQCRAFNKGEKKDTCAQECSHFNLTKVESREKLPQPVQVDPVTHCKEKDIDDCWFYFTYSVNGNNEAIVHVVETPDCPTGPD

Molecule | effect on dissociation of rh-α5β1 protein bound to FN (SPR response) [1] | cellular detachment (cell rounding) of U87MG cells from FN coated plates (U87MG cells) | Absorbance 450 nm [2] | Absorbance 450 nm [3] | Kd [4] [nM] | koff [4] [s⁻¹] | kon [4] [M⁻¹ s⁻¹] | % Max Inhibition [5] [%] | Absorbance 450 nm [6]
cyclic RGD [cRGD, reference compound] | did not have any discernable effect on the dissociation rate | did not show significant cell detachment | – | – | – | – | – | – | –
B1 | – | – | 0.0682 | 2.05 | 0.8 | 0.000178 | 222000 | 41 | 0.0713
B2 | – | – | 0.0563 | 2.03 | 1.3 | 0.000314 | 242000 | 60 | 0.0617
B3 | – | – | 0.0647 | 2.31 | 2.32 | 0.00161 | 693000 | 93 | 0.0683
